From the RNAGym collection of RNA variant scans (doi:10.1093/nar/gkz1192) come the findings set out here.

B1: CPEB3 Ribozyme (parent)
chain: UAACAGGGGGCCACAGCAGAAGCGUUCACGUCGCAGCCCCUGUCAGAUUCUGGUGAAUCUGCGAAUUCUGCUGUAUAUCUC

The data set covers variants of B1. As to the kind of experiment: self-cleavage, relative activity (ratio to wild type); higher = more cleavage; in vitro, sequencing. An outline of the steps: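 Libraries of CPEB3 self-cleaving ribozyme mutants came from rounds of error-prone PCR and carried barcodes, which DNA sequencing matched to variants. In vitro transcription used T7 RNA polymerase at 37°C for 5 hours, with a further 15 min in DNase I before EDTA stopped the reaction; the ribozymes cleaved during both steps. The RNA was reverse transcribed with template switching and sequenced on Illumina. Relative activity is the cleaved/total read fraction of a variant divided by that of the unmutated ribozyme, averaged over three batches with at least 5 reads.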
Turning to UAACAGGGGGCCACAGCAGAAGCAUUCACGUCGCAGCCCCUGUCAGAUUCUGGUGAAUCUGCGAAUUCUGCCGUAUAUCUC, the self-cleavage stood at 0.25.

Turning to UAACAGGGGGCCACAGCAGAAGCAUUCACGUCGCAGCCCCUGUCAGAUUCUGGUGAAUCUGCGAAUUCUGCAGUAUAUCUC, the self-cleavage was 0.29. The result for UAACAGGGGGCCACAGCAGAAGCCUUCACGUCGCAGCCCCUGUCGGAUUCUGGUGAAUCUGCGAAUUCUGCUGUAUAUCUC reads 0.21; that for UAACAGGGGGCCACAGCAGAAGCCUUCACGUCGCAGCCCCUGUCUGAUUCUGGUGAAUCUGCGAAUUCUGCUGUAUAUCUC, 0.13; that for UAACAGGGGGCCACAGCAGAAGCCUUCACGUCGCAGCCCCUGUCAGGUUCUGGUGAAUCUGCGAAUUCUGCUGUAUAUCUC, 0.48. As for UAACAGGGGGCCACAGCAGAAGCAUUCACGUCGCAGCCCCUGUCAGAUUCUGGUGAAUCUGCGAAUUCUGCUGUACAUCUC, the figure is 0.26. The result for UAACAGGGGGCCACAGCAGAAGCAUUCACGUCGCAGCCCCUGUCAGAUUCUGGUGAAUCUGCGAAUUCUGCUGUAUACCUC reads 0.33. Take UAACAGGGGGCCACAGCAGAAGCAUUCACGUCGCAGCCCCUGUCAGAUUCUGGUGAAUCUGCGAAUUCUGCUGUAUAACUC: the self-cleavage was found to be 0.07.

Regarding UAACAGGGGGCCACAGCAGAAGCAUUCACGUCGCAGCCCCUGUCAGAUUCUGGUGAAUCUGCGAAUUCUGCUGUAUAGCUC, the self-cleavage came out at 0.16. Regarding UAACAGGGGGCCACAGCAGAAGCCUUCACGUCGCAGCCCCUGUCAGAUUCUGGUGAAUCUGCGGAUUCUGCUGUAUAUCUC, the self-cleavage is 0.45. The result for UAACAGGGGGCCACAGCAGAAGCCUUCACGUCGCAGCCCCUGUCAGAUUCUGGUGAAUCUGCAAAUUCUGCUGUAUAUCUC reads 0.18; that for UAACAGGGGGCCACAGCAGAAGCAUUCACGUCGCAGCCCCUGUCAGAUUCUGGUGAAUCUGCGAAUUCUGCUGUAUAUCAC, 0.24.

For UAACAGGGGGCCACAGCAGAAGCAUUCACGUCGCAGCCCCUGUCAGAUUCUGGUGAAUCUGCGAAUUCUGCUGUAUAUCCC, the self-cleavage amounted to 0.59. The result for UAACAGGGGGCCACAGCAGAAGCAUUCACGUCGCAGCCCCUGUCAGAUUCUGGUGAAUCUGCGAAUUCUGCUGGAUAUCUC reads 0.13; that for UAACAGGGGGCCACAGCAGAAGCAUUCACGUCGCAGCCCCUGUCAGAUUCUGGUGAAUCUGCGAAUUCUGCUGAAUAUCUC, 0.18. As for UAACAGGGGGCCACAGCAGAAGCAUUCACGUCGCAGCCCCUGUCAGAUUCUGGUGAAUCUGCGAAUUCGGCUGUAUAUCUC, the figure is 0.13. The result for UAACAGGGGGCCACAGCAGAAGCAUUCACGUCGCAGCCCCUGUCAGAUUCUGGUGAAUCUGCGAAUUCAGCUGUAUAUCUC reads 0.25. As to UAACAGGGGGCCACAGCAGAAGCAUUCACGUCGCAGCCCCUGUCAGAUUCUGGUGAAUCUGCGAAUUCCGCUGUAUAUCUC, the self-cleavage is 0.32. Consider UAACAGGGGGCCACAGCAGAAGCCUUCACCUCGCAGCCCCUGUCAGAUUCUGGUGAAUCUGCGAAUUCUGCUGUAUAUCUC, for which the self-cleavage was found to be 0.11. The result for UAACAGGGGGCCACAGCAGAAGCCUUCACGUCGCAGCCCCUGUCAGAUUCUGGUGAAUCUGCGAAUUCUGCUGUAUAUCUC reads 0.31; that for UAACAGGGGGCCACAGCAGAAGCCUUCACGUCGCAGCCCCUGUCAGAUUCUGGUGAAUCUGCGAAUUCUGCUGUAUUUCUC, 0.09; that for UAACAGGGGGCCACAGCAGAAGCCUUCACGUCGCAGCCCCUGUCAGAUUCUGGUGAAUCUGCGAAUUCUGCUGUAUGUCUC, 0.3. For UAACAGGGGGCCACAGCAGAAGCCUUCACGUCGCGGCCCCUGUCAGAUUCUGGUGAAUCUGCGAAUUCUGCUGUAUAUCUC, the self-cleavage turned out to be 0.1. As for UAACAGGGGGCCACAGCAGAAGCCUUCACGUCGCAGCCCCUAUCAGAUUCUGGUGAAUCUGCGAAUUCUGCUGUAUAUCUC, the figure is 0.32; as for UAACAGGGGGCCACAGCAGAAGCCUUCACGUCGCAGCCCCUGUCAGAUUCUGGUGAAUCUACGAAUUCUGCUGUAUAUCUC, 0.18; as for UAACAGGGGGCCACAGCAGAAGCCUUCUCGUCGCAGCCCCUGUCAGAUUCUGGUGAAUCUGCGAAUUCUGCUGUAUAUCUC, 0.28.

For the variant UAACAGGGGGCCACAGCAGAAGCCUUCGCGUCGCAGCCCCUGUCAGAUUCUGGUGAAUCUGCGAAUUCUGCUGUAUAUCUC, the self-cleavage turned out to be 0.41. UAACAGGGGGCCACAGCAGAAGCCUUCACGUCGCAGCCCCUGUCAGAUUCUGGUGAAUCUGCGAAUUCUGCUGUUUAUCUC: the self-cleavage is 0.33. As for UAACAGGGGGCCACAGCAGAAGCCUUCAAGUCGCAGCCCCUGUCAGAUUCUGGUGAAUCUGCGAAUUCUGCUGUAUAUCUC, the figure is 0.23. In the case of UAACAGGGGGCCACAGCAGAAGCCAUCACGUCGCAGCCCCUGUCAGAUUCUGGUGAAUCUGCGAAUUCUGCUGUAUAUCUC, the self-cleavage is 0.21.

For the variant UAACAGGGGGCCACAGCAGAAGCCUUCACGACGCAGCCCCUGUCAGAUUCUGGUGAAUCUGCGAAUUCUGCUGUAUAUCUC, the self-cleavage came out at 0.19. As for UAACAGGGGGCCACAGCAGAAGCCUUCACGUCGCAGCCCCUGUCAGAUUCUGGUGAGUCUGCGAAUUCUGCUGUAUAUCUC, the figure is 0.11. As for UAACAGGGGGCCACAGCAGAAGCCUUCACGUCGCAGCCCCUGUCAGAUUCUGGUGAUUCUGCGAAUUCUGCUGUAUAUCUC, the figure is 0.11; as for UAACAGGGGGCCACAGCAGAAGCCUUCACGUCGCAGCCCCUGUCAGAUUCUGGUGAAUCUGCGAAUUCUGCUAUAUAUCUC, 0.16.
